This is an account of results in article PMC12749690.

In assay [1] the target is CtpA_(S300A/K325A/Q329A) triple mutant (CtpATM) (Helicobacter pylori G27). The assay can be described thus: cryo-EM structure; 2 mg/ml protein on Quantifoil R1.2/1.3 grids, Titan Krios 300 kV.
The target in assay [2] is CtpAΔN46 (residues 47-454), wild-type H. pylori CtpA (Helicobacter pylori G27). Description: AUC; sedimentation velocity, absorbance, 28,000 rpm, 16 °C, c(s) model in SEDFIT.
For assay [3] the target is unchanged. The assay can be described thus: cryo-EM structure; 2 mg/ml protein on Quantifoil R1.2/1.3 grids, Titan Krios 300 kV.
The target is the same in assay [4]. The assay can be described thus: crystal structure; sitting-drop vapour diffusion; wild type: 100 mM bis-Tris-HCl pH 6.5, 100 mM magnesium chloride, 25% PEG 3350, 16 °C; F105R: Morpheus condition A8.
Assay [5] deals with Recombinant HP1076 protein (Helicobacter pylori). The assay can be described thus: MST; CtpA_(S300A) diluted from 165 μM to 5.04 nM, mixed 1:1 with 45 nM RED-NHS-labelled HP1076; Monolith NT.115, 70% excitation power, 40% MST power, 20 °C.
The target of assay [6] is CtpA_(F105R) mutant (Helicobacter pylori G27). Description: crystal structure; sitting-drop vapour diffusion; wild type: 100 mM bis-Tris-HCl pH 6.5, 100 mM magnesium chloride, 25% PEG 3350, 16 °C; F105R: Morpheus condition A8.

One may read the stoichiometry N as a count of units in the complex or per binding partner. As to “CtpA_(S300A/K325A/Q329A) triple mutant (CtpATM) (enzyme)”, in assay [1], the stoichiometry N amounted to 6.
As for “CtpAΔN46 (residues 47-454), wild-type H. pylori CtpA (enzyme)”, the stoichiometry N in assay [2], in assay [3] and in assay [4] was 6 throughout.
As usually defined, the Kd is the concentration at which binding is half-saturated. Turning to “CtpA_(S300A) (inactive mutant of CtpAΔN46) (enzyme)”, in assay [5], the Kd worked out at 15.4 µM.
Take CtpA_(F105R) mutant (enzyme): the stoichiometry N in assay [6] stood at 6.
